The test system of one test is Pst DC3000. Put plainly: Bacterial multiplication and disease symptoms in HopM1 transgenic Arabidopsis plants. In kind it is in vivo, Pseudomonas syringae. As to conditions: full-length HopM1 expressed in transgenic Arabidopsis. On the procedure: (§1) Following inoculation, infected plants were monitored daily over a 3- to 4-day period for symptom development and bacterial multiplication. For experiments described in FIGS. 1 and 5, plants were sprayed with 30 μM dexamethasone (DEX) 24 h before bacterial inoculation (1×10^6 cfu/ml).
(§2) Leaves were harvested and surface sterilized as follows: 1) whole leaves were removed from a host plant and gently mixed in a 70% ethanol solution for 1 minute. Leaves were blotted briefly on paper towels then rinsed in sterile distilled water for 1 minute, then blotted dry on paper towels. Leaf disks were excised from leaves with a 0.5 cm^2 or smaller cork borer, depending on the size of the sample leaves; 2) leaf disks from the leaves of 2 or more independent replicate plants were pooled for a single tissue sample and placed in a 1.5-mL microfuge tube with 100 μL sterile distilled water, the amount of leaf tissue per tube was recorded as leaf surface area. Three or more samples were harvested for each time point. […] The number of serial dilutions necessary to get countable colonies were determined for each sample, however dilutions to 10^−7 were usually sufficient for any bacterial strain; 7) The samples were plated on the appropriate medium (e.g., Low salt Luria Bertani) supplemented with the necessary antibiotics to select for the specific inoculated bacterial strain. […]

In another test the test system is hrcC mutant. Put plainly: Bacterial multiplication in HopM1 transgenic Arabidopsis plants. In kind it is in vivo, Pseudomonas syringae. As to conditions: full-length HopM1 expressed in transgenic Arabidopsis. On the procedure: as §1, §2
The subject of test [1] is AtMIN2, AtMIN7, and AtMIN 10. Put plainly: Immunoblot of AtMIN-HA proteins transiently co-expressed with HopM1 in N. benthamiana leaves. In kind it is cell-based, Arabidopsis thaliana. As to conditions: DEX-induced expression in N. benthamiana leaves. The method, then:
Oligonucleotide primers used for amplifying hopMl and AtMIN genes from Pst DC3000 genomic DNA or Arabidopsis total cDNA, as applicable, used for creating these expression vectors are shown in FIG. 14. Two days after leaf infiltration, 0.3 μM DEX was applied to induce the expression of HopM11-712, or HopM11-300 or HopM11-712. Three hours after DEX treatment, leaf discs were taken for subsequent analyses using immunoblotting or co-immunoprecipitation experiments (see, EXAMPLES herein for procedures).
Plant cells expressing 6×His-HopM1 and AtMIN-HA proteins in N. benthamiana leaves were engineered to co-express a second transiently expressed protein, either full-length 6×His-HopM1 or 6×His-HopM11-300. […] Specifically, AtMIN7-HA was pulled down with HopM11-300, but not with 6×His-HopM1301-712. Please note that membrane associated AtMIN 10-HA was preferably eliminated during bacterial infection. Arrows indicate lanes in which DEX-induced expression of full-length HopM1 destabilized AtMIN2, AtMIN7, and AtMIN 10 (FIG. 6B).
Expression Plasmids for Nicotiana cells: For transient expression studies in Nicotiana benthamiana; expression plasmids were engineered to express C-terminal HA epitope-tagged AtMIN proteins using a constitutive CaMV 35S promoter operably linked to AtMIN sequences. […]

In a further test the test system is AtMIN10-HA. Put plainly: Immunoblot of AtMIN10-HA in transgenic plants infiltrated with ΔCEL mutant bacteria (pORF43). It counts as in vivo, Arabidopsis. To be noted: HopM1 delivered by 1×10^8 CFU/ml ΔCEL mutant bacteria (pORF43). On the procedure:
In brief: leaf disc fractions were homogenized in 1×SDS-polyacrylamide gel electrophoresis (PAGE) sample buffer, boiled for 5 min, and centrifuged for 2 minutes. Proteins in the supernatant were separated on SDS-PAGE gels and transferred to Immobilon-P membrane for immunoblotting procedures (Millipore Corp., Bedford, Mass.).
Furthermore AtMIN10-HA stably expressed in transgenic plants was also destabilized by HopM1. Leaves of AtMIN10-HA transgenic plants were infiltrated with water or 1×10^8 CFU/ml ΔCEL mutant bacteria or ΔCEL mutant bacteria (pORF43). AtMIN10-HA was detected using the HA epitope antibody.

The next test relates to AtMIN proteins. Put plainly: Immunoblot of AtMIN proteins co-expressed with HopM1 in yeast. In kind it is cell-based, Arabidopsis thaliana. To be noted: co-expression in yeast. The text has this:
AtMIN fusion proteins expressed from pB42AD were visualized by the HA epitope antibody, as was AtMIN10-HA. HopM1 fusion proteins expressed from pGilda were visualized by the LexA antibody. Coomassie Brilliant Blue-stained gels were used as loading controls. […] AtMIN12 (a putative protein predicted to be targeted to the chloroplast) was not destabilized.
HopM11-300 or full-length HopM1 pGILDA and each individual test AtMIN pB42AD were co-transformed into yeast cells as described in EXAMPLE III.
Immunoblot analysis was then performed on yeast cells lines that expressed one each of the 21 AtMIN proteins co-expressed with either HopM11-300 or full-length HopM1(1-712). […] For comparison, AtMIN12 (a hypothetical protein predicted to be targeted to the chloroplast) was not destabilized (FIG. 6A).

B1: full-length HopM1: Pst DC3000 type III effector, 712-aa virulence protein (SEQ ID NO:34) (protein)
chain: MISSRIGGAGGVELSRVNQQHDTVPAQTAHPNAVTAGMNPPLTPDQSGSHATESSSAGAARLNVAARHTQLLQAFKAEHGTAPVSGAPMISSRAALLIGSLLQAEPLPFEVMAEKLSPERYQLKQFQGSDLQQRLEKFAQPGQIPDKAEVGQLIKGFAQSVADQLEHFQLMHDASPATVGQHAKADKATLAVSQTALGEYAGRASKAIGEGLSNSIASLDEHISALDLTLQDAEQGNKESLHADRQALVDAKTTLVGLHADFVKSPEAKRLASVAAHTQLDNVVSDLVTARNTVGGWKGAGPIVAAAVPQFLSSMTHLGYVRLSTSDKLRDTIPETSSDANMLKASIIGMVAGIAHETVNSVVKPMFQAALQKTGLNERLNMVPMKAVDTNTVIPDPFELKSEHGELVKKTPEEVAQDKAFVKSERALLNQKKVQGSSTHPVGELMAYSAFGGSQAVRQMLNDVHQINGQTLSARALASGFGGAVSASSQTLLQLKSNYVDPQGRKIPVFTPDRAESDLKKDLLKGMDLREPSVRTTFYSKALSGIQSSALTSALPPVTAQAEGASGTLSAGAILRNMALAATGSVSYLSTLYTNQSVTAEAKALKAAGMGGATPMLDRTETALNNIRHPNRESLPHTFQKSTLSGIPRVAENAYHMGRGALQLPTQMAVDTVRVVDEGVLNAVASAREALKQPTKDDDALRALEEGLLDPR
modifications: 6xHis tag; Pseudomonas syringae pv. tomato str. DC3000
As to B1, the “complementation effect on multiplication” value with Pst DC3000 and in the test on hrcC mutant was “did not show this effect” in each case. Besides, in test [1], the “destabilization of AtMIN2, AtMIN7 and AtMIN10” value is on record as “destabilized”. In addition, the “stability of AtMIN10-HA” value in the test on AtMIN10-HA is “destabilized”. In addition, the “destabilization of AtMIN proteins in yeast” value in the test with AtMIN proteins was “destabilized”.

These data come from US8058507B2, “HOPM1 mediated disease resistance to Pseudomonas syringae in Arabidopsis” (priority 2007, dated 2011).
